Read-outs that look alike come from different tables or passages of the source. Non-standard residues stand in square brackets, D forms with d. Primed or numbered codes have the meaning given here. No end group written: not given here. APC = aminopyrrolidine carboxylic acid (2-aminopyrrolidine-4-carboxylic acid); ACPC″ = 2-aminocyclopentane carboxylic acid (X); β3hW = N[C@H](CC(=O)O)Cc1c[nH]c2ccccc12; β3hE = N[C@@H](CCC(=O)O)CC(=O)O; β3hF = N[C@H](CC(=O)O)Cc1ccccc1; β3hK = NCCCC[C@H](N)CC(=O)O; β3hM = CSCC[C@H](N)CC(=O)O; β3hD = NC(CC(=O)O)CC(=O)O; β3hS = N[C@@H](CO)CC(=O)O; Aib = CC(C)(N)C(=O)O

Experiment [1] deals with T1, PTHR-1 (species and cells not stated for the assay) (Homo sapiens (Human), UniProt Q03431 27-593).
T1 sequence: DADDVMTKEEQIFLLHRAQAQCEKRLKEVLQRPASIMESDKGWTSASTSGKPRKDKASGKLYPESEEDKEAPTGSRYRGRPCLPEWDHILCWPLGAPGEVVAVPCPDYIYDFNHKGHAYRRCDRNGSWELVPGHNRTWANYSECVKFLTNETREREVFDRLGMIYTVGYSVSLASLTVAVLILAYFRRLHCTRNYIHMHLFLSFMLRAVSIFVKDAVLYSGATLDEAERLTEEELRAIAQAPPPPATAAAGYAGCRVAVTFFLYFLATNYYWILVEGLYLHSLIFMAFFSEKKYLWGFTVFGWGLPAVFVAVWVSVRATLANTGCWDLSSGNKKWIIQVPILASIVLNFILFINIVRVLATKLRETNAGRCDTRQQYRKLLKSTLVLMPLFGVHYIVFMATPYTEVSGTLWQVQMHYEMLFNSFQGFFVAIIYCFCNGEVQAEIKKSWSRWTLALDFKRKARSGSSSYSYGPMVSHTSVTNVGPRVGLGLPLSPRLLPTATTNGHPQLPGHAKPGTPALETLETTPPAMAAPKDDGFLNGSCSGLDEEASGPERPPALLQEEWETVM
As to the kind of experiment: cell-based or functional assay.

The target in experiment [2] is T2, human parathyroid hormone receptor 1, wild-type (hPTHR-1) (human, UniProt Q03431 27-593).
T2 construct: whole, on cells; also called human PTHR-1; PTHR-1-WT
T2 sequence (looked up): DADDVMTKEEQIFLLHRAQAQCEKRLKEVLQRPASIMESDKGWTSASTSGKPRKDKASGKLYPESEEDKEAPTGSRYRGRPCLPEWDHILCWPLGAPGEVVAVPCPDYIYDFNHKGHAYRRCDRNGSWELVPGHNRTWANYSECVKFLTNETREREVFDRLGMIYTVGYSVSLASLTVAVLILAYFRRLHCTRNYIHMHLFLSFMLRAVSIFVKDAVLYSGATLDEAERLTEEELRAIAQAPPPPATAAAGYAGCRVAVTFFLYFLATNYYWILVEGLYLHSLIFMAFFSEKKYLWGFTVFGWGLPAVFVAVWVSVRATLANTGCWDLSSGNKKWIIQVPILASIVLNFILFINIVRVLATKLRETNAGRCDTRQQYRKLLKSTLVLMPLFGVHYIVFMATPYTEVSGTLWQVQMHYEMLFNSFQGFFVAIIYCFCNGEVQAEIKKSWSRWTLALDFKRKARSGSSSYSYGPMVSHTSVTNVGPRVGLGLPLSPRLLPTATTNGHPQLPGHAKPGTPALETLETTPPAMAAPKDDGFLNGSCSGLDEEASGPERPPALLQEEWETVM
As to the kind of experiment: R0 binding, GP2.3 membranes (human PTHR-1); tracer not stated here.

The target in experiment [3] is T3, rat parathyroid hormone receptor 1, wild-type (rPTHR-1) (rat, UniProt P25961 27-591).
T3 sequence (looked up): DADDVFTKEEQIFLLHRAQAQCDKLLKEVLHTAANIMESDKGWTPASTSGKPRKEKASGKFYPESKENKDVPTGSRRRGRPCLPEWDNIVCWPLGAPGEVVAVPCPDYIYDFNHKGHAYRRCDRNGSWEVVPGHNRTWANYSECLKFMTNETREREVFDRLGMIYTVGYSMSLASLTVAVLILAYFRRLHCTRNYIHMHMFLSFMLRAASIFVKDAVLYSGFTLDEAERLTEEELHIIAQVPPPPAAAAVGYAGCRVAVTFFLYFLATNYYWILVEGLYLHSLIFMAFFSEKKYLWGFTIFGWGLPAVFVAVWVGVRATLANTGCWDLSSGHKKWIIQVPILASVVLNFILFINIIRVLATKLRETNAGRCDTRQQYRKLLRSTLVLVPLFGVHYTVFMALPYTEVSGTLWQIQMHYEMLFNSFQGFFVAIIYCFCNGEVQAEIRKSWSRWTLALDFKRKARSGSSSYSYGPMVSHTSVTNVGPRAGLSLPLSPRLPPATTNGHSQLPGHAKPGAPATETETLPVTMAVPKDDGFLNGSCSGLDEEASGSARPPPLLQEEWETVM
Put plainly: cell-based or functional assay. Further details: AUC-on / AUC-washout: unit not given beside the values.

Experiment [4] concerns the target T2, human parathyroid hormone receptor 1, …. Put plainly: cell-based or functional assay.
Experiment [5] deals with T3, rat parathyroid hormone receptor 1, …. As to the kind of experiment: RG state; 125I-M-PTH(1-15) displacement; COS-7 membranes, rPTHR-1 + Gαs mutant. The text has this:
(§1) Binding inhibition constants are expressed as the -log (IC50) and corresponding nanoMolar (nM) values. Values are means (±SEM) of the number of experiments shown (n), each performed in duplicate.

Experiment [6] addresses T2, human parathyroid hormone receptor 1, …. As to the kind of experiment: RG state; 125I-M-PTH(1-15) displacement; COS-7 membranes, hPTHR-1 + Gαs mutant. The text has this: (§2) FIGS. 6A, 6B, 6C, 6D, 6E, and 6F constitute a series of graphs depicting binding of various analogs to the R⁰ and RG forms of human PTHR-1 (hPTHR-1). […] Data are means (±SEM) of n≧4 experiments, each performed in duplicate.

The target is the same in experiment [7]. As to the kind of experiment: R0 state; 125I-PTH(1-34) displacement; COS-7 membranes, hPTHR-1, GTPγS.
Source text: as §2

For experiment [8] the target is unchanged. Put plainly: RG state; 125I-M-PTH(1-15) displacement; COS-7 membranes, hPTHR-1 + Gαs mutant. From the text:
(§3) ^aValues are means of n ≧4 experiments, each performed in duplicate.
The source holds these as a separate data set.

The target in experiment [9] is T3, rat parathyroid hormone receptor 1, …. Put plainly: RG state; 125I-M-PTH(1-15) displacement; COS-7 membranes, rPTHR-1 + Gαs mutant.
Source text: as §1
The source holds these as a separate data set.

Experiment [10] has the same target. Put plainly: cell-based or functional assay.
Experiment [11] shares this target. As to the kind of experiment: cell-based or functional assay. The source holds these as a separate data set.
Experiment [12] has as its target T2, human parathyroid hormone receptor 1, …. Put plainly: cell-based or functional assay. The source holds these as a separate data set.
For experiment [13] the target is unchanged. Put plainly: R0 state; 125I-PTH(1-34) displacement; COS-7 membranes, hPTHR-1, GTPγS.
Source text: as §3
This is another data set of the same source.

Experiment [14] deals with T3, rat parathyroid hormone receptor 1, …. Put plainly: R0 state; 125I-PTH(1-34) displacement; COS-7 membranes, rPTHR-1, GTPγS.
Source text: as §1

For experiment [15] the target is unchanged. The description is as above.
Source text: as §1
The source holds these as a separate data set.

Experiment [16] shares this target. As to the kind of experiment: ratio of R0 IC50 to RG IC50, rPTHR-1.
Source text: as §1

Experiment [17] deals with T2, human parathyroid hormone receptor 1, …. As to the kind of experiment: ratio of R0 IC50 to RG IC50, hPTHR-1.
Experiment [18] addresses T1, PTHR-1 (species and cells not stated …). As to the kind of experiment: cell-based or functional assay. This is another data set of the same source.
Experiment [19] has the same target. Put plainly: cell-based or functional assay. This is another data set of the same source.

[β3hS]VSE[ACPC″]Q[ACPC″]MHNLGK[ACPC″]LNS[ACPC″]ERV[APC]WLR[APC]KLQ[ACPC″]VHN[ACPC″]-NH2 [FcycD6_β3Ser(1), ACPC(5,7)]: the “cAMP EC50” value in experiment [1] came to 0.79 nM. In experiment [2], the IC50 was determined as 89.4 nM.

B1: B5 (peptide)
peptide: SVSEIQLMHNLGKHLNSMERVEWLRKKLQDVQNF-NH2
modifications: not fully specified (residues 20, 24, 28, 32); printed as SVSEIQLMHNLGKHLNSMERVEWLRKKLQDVQNF-NH2; also: five β3 residues, positions not given here in text
notes: also called α/β-peptide B5
B1: the AUC-on in [3] was found to be 130000. The molecule also yielded an AUC-washout in experiment [3] of 84000. In addition, the “cAMP EC50” value came out at 0.11 nM in experiment [4], 1.45 nM in experiment [10], 1.45 nM in experiment [11] and 0.11 nM in experiment [12]. The “cAMP Max” value in experiment [4] is 0.98 relative to PTH(1-34); in experiment [10], 51 cps × 10-3; in experiment [11] it was 0.78 relative to PTH(1-34); in experiment [12], 212 cps × 10^-3. Besides, the IC50 was 4.2 nM in [5]; 0.086 nM in [6]; 19 nM in experiment [7]; 0.086 nM in [8]; 4.2 nM in experiment [9]; 19 nM in [13]. Also, the IC50 in experiment [14] and in [15] was 65 nM throughout. The “-log (IC50)” value in experiment [6] worked out at 10.1; in experiment [7] it was 7.72; in experiment [9], 8.37; in experiment [14], 7.18. The “cAMP pEC50” value in experiment [10] is 8.84; in experiment [12] it was 9.97.

B2: D7 (peptide)
peptide: SVSEIQLMHNLGKWLNSMERVEWLRKKLQDVHNF-NH2
modifications: not fully specified (residue 14); printed as SVSEIQLMHNLGKWLNSMERVEWLRKKLQDVHNF-NH2; also: seven β3 residues, positions not given here in text
notes: also called α/β-peptide D7
Consider B2, for which the entries for the “cAMP EC50” value in experiment [4], in [10] and in [12] were 0.39 nM, 1.62 nM and 0.39 nM, respectively. For the same molecule, the “cAMP Max” value in experiment [4] was 0.85 relative to PTH(1-34); in experiment [10], 40 cps × 10-3; in experiment [12], 184 cps × 10^-3. Also, the “-log (IC50)” value in experiment [6] was 9.63; in experiment [7] it was 8.45; in [9], 8.69; in [14], 7.83. The IC50 in [6] is 0.24 nM; in experiment [7], 3.5 nM; in experiment [8], 0.24 nM; in [9], 2 nM; in [13] it was 3.5 nM; in [14], 14.8 nM. Also, the “Fold PTH(1-34)” value in experiment [10] worked out at 3.89 fold; in experiment [12], 2.26 fold. Further, the “cAMP pEC50” value in experiment [10] stood at 8.79; in experiment [12] it was 9.41. The “R^0/RG” value in [16] came to 7 ratio; in [17], 15 ratio.

On to SVSEIQLMHNLGK[β3hW]LNS[β3hM]ERV[β3hE]WLR[β3hK]KLQ[β3hD]VHN[β3hF]-NH2 (also called α/β-peptide D6) [D6], for which the “AUC Ratio” value in [3] is 1.5. The same molecule gave an AUC-on in [3] of 100000. In [3], this molecule yielded an AUC-washout of 130000. The “cAMP EC50” value in experiment [4] stood at 0.13 nM; in [10] it was 0.33 nM; in [11], 0.33 nM; in experiment [12], 0.13 nM; in [19], 0.17 nM. Moreover, the “cAMP Max” value in [4] was 0.87 relative to PTH(1-34); in experiment [10], 50 cps × 10-3; in experiment [11], 0.76 relative to PTH(1-34); in [12], 189 cps × 10^-3. Moreover, the half-inhibitory concentration (IC50) in experiment [5] amounted to 0.81 nM; in experiment [6], 0.065 nM; in [7], 2 nM; in experiment [8] it was 0.065 nM; in experiment [9], 0.81 nM; in experiment [13] it was 2 nM. Further, the IC50 in experiment [14] and in [15] was 6.1 nM each time. For the same molecule, the “-log (IC50)” value in experiment [6] came out at 10.2; in [7], 8.69; in experiment [9], 9.09; in experiment [14], 8.22. The results for the “Fold PTH(1-34)” value in [10] and in [12] were 0.79 fold and 0.76 fold, respectively. Moreover, the “cAMP pEC50” value is 9.48 in experiment [10] and 9.89 in experiment [12]. Further, the “R^0/RG” value in experiment [16] is 8 ratio; in experiment [17] it was 31 ratio. Further, the “cAMP response PTH1R/PTH2R” value in experiment [18] is 33 ratio. The “Fold PTH” value in [19] stood at 2.1 fold.

Turning to [β3hS]V[Aib]EIQ[ACPC″]MHNLGK[ACPC″]LNS[ACPC″]ERV[APC]WLR[APC]KLQ[ACPC″]VHN[ACPC″]-NH2 [FcycD6_β3Ser(1), Aib(3), ACPC (7)], in [1], the “cAMP EC50” value was determined as 0.21 nM. The same molecule displayed an IC50 in experiment [2] of 1.54 nM.

Source of the values: patent US20140378382A1 (WISCONSIN ALUMNI RESEARCH FOUNDATION, published 2014).
